± gives the standard deviation of the averaged measurements.
Tested on: Saccharomyces cerevisiae
Test: protein stability index of tFT-peptide fusion (C-terminal peptide) (PSI (0-1 scale)); higher = more stable (slower turnover)
Conditions: temperature: 30 C
Protocol: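 MPS profiling in S. cerevisiae of the yeast C-terminome library: the last 12 aa of each annotated ORF are fused to the C-terminus of a sfGFP-mCherry timer, after a GGGS linker. Cells are FACS-sorted into 8 mCherry/sfGFP bins and deep-sequenced. PSI runs from 0 (unstable) to 1 (stable); wild type and das1Δ backgrounds, two technical replicates each.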

[1] = genetic background: das1 deletion

| Sequence | protein stability index [1] | protein stability index (genetic background: wild type) |
| --- | --- | --- |
| NVGNNEETLDDH [RAD34 C-terminal 12 aa] | 0.726 ± 0.047 | 0.701 ± 0.067 |
| DKSTFGLSPVKI [GRS2 C-terminal 12 aa] | 0.691 ± 0.033 | 0.666 ± 0.0084 |
| QPKKKRKKSILH [SPP41 C-terminal 12 aa] | 0.749 ± 0.061 | 0.672 ± 0.05 |
| LRRYEEDLFCTF [IES2 C-terminal 12 aa] | 0.759 ± 0.029 | 0.7425 ± 0.0059 |
| LQRLCKKYPEIY [RFA3 C-terminal 12 aa] | 0.709 ± 0.015 | 0.703 ± 0.02 |
| ENLVKQEAINGS [YAF9 C-terminal 12 aa] | 0.6823 ± 0.0044 | 0.6834 ± 0.0042 |
| SNYNNRTTDMPL [PSP2 C-terminal 12 aa] | 0.6781 ± 0.0018 | 0.703 ± 0.1 |
| AGAAWFFVKLLG [CCC1 C-terminal 12 aa] | 0.67 ± 0.017 | 0.476 ± 0.045 |
| KILVFDKNLMNR [YLR154W-E C-terminal 12 aa] | 0.699 ± 0.0098 | 0.688 ± 0.019 |
| SAITKNLLDDFV [RAV1 C-terminal 12 aa] | 0.735 ± 0.05 | 0.745 ± 0.066 |
| IVNVMFCLVRGF [DSC3 C-terminal 12 aa] | 0.42 ± 0.021 | 0.404 ± 0.03 |
| PCYSDAPPRFMC [YER152W-A C-terminal 12 aa] | 0.701 ± 0.034 | 0.287 ± 0.0035 |
| DLESLTAKLIQG [HCA4 C-terminal 12 aa] | 0.7 ± 0.022 | 0.67282 ± 0.00041 |
| ECAPVPPAVRSY [SDH9 C-terminal 12 aa] | 0.683 ± 0.011 | 0.6797 ± 0.0018 |
| ALDAVDDAIILD [GET1 C-terminal 12 aa] | 0.716 ± 0.0098 | 0.659 ± 0.021 |
| KNEELSKKHFSK [ROK1 C-terminal 12 aa] | 0.718 ± 0.013 | 0.74 ± 0.12 |
| QFLFTGRQKNYV [ERP2 C-terminal 12 aa] | 0.718 ± 0.017 | 0.718 ± 0.024 |
| AVNTLLWQEQYS [YDR042C C-terminal 12 aa] | 0.739 ± 0.017 | 0.751 ± 0.13 |
| LCHSSHIPETLK [MSN1 C-terminal 12 aa] | 0.719 ± 0.033 | 0.663 ± 0.042 |
| AKSEDISCVLII [YPL238C C-terminal 12 aa] | 0.711 ± 0.025 | 0.646 ± 0.022 |
| LIDSVKKKVNND [SAC3 C-terminal 12 aa] | 0.681 ± 0.029 | 0.697 ± 0.069 |

| Sequence | protein stability index [1] | protein stability index (genetic background: wild type) |
| --- | --- | --- |
| QSVAILDGKLVW [YGL258W-A C-terminal 12 aa] | 0.677 ± 0.015 | 0.65 ± 0.021 |
| DVEELREQLENC [AIM7 C-terminal 12 aa] | 0.692 ± 0.0025 | 0.723 ± 0.018 |
| TDGPNEKWLPDY [SKS1 C-terminal 12 aa] | 0.7099 ± 0.0056 | 0.712 ± 0.046 |
| LLSGEPLAKKKE [HMLALPHA2 C-terminal 12 aa] | 0.697 ± 0.0074 | 0.744 ± 0.036 |
| KAFFISKTLPCI [YLR112W C-terminal 12 aa] | 0.7141 ± 0.0031 | 0.766 ± 0.07 |
| YKNKVGVGIPFI [STE14 C-terminal 12 aa] | 0.728 ± 0.019 | 0.7065 ± 0.0057 |
| FPVTLWSKVILK [YHR073W-A C-terminal 12 aa] | 0.569 ± 0.0092 | 0.559 ± 0.026 |
| RYFCHLFRCSII [YDL022C-A C-terminal 12 aa] | 0.722 ± 0.04 | 0.654 ± 0.021 |
| EGFIAKVMCCLD [RFC5 C-terminal 12 aa] | 0.606 ± 0.0065 | 0.599 ± 0.021 |
| SLLLEKLDPEIE [UBX5 C-terminal 12 aa] | 0.731 ± 0.056 | 0.716 ± 0.013 |
| ILDSFEEWSDEE [HDA1 C-terminal 12 aa] | 0.7224 ± 0.0053 | 0.688 ± 0.0073 |
| DKKLEEQLRDLV [MTC3 C-terminal 12 aa] | 0.6866 ± 0.0029 | 0.689 ± 0.052 |
| RQCEDTNFGFKI [YDL242W C-terminal 12 aa] | 0.6949 ± 0.0057 | 0.688 ± 0.039 |
| INGIIDPSELSD [ALO1 C-terminal 12 aa] | 0.69 ± 0.029 | 0.68 ± 0.0073 |
| VTSKSALESIFP [YGP1 C-terminal 12 aa] | 0.73 ± 0.0083 | 0.678 ± 0.031 |
| GTQVMYISEQKI [LSM6 C-terminal 12 aa] | 0.698 ± 0.0048 | 0.713 ± 0.016 |
| HAKGSGNTMNRG [TAP42 C-terminal 12 aa] | 0.691 ± 0.029 | 0.664 ± 0.015 |
| SILTHSTSPDSR [HYM1 C-terminal 12 aa] | 0.727 ± 0.033 | 0.718 ± 0.076 |
| FLFSCMLYKIDP [YML089C C-terminal 12 aa] | 0.669 ± 0.027 | 0.664 ± 0.034 |
| LTINDLDVTFVI [YCR041W C-terminal 12 aa] | 0.721 ± 0.022 | 0.71 ± 0.0024 |
